Data published in US20030032587A1, “Urocortin peptides” (The Salk Institute for Biological Studies, priority 1995, published 2003).
Bridges are numbered along the chain shown (N, C = ends). Where no end group is shown, it is not given here. [ ]: non-standard residue; d: D form. Orn = NCCC[C@H](N)C(=O)O

B1: (cyclo 29-32) [Ac-Pro3,D-Ser4,D-Phe11, Glu29, Lys32]-hUcn(3-40) (peptide)
peptide: Ac-P[dS]LSIDLT[dF]HLLRTLLELARTQSQREEAEKNRIIFDSV-NH2
modifications: lactam 27-30
SMILES: CC[C@H](C)[C@H](NC(=O)[C@H](CO)NC(=O)[C@H](CC(C)C)NC(=O)[C@@H](CO)NC(=O)[C@@H]1CCCN1C(C)=O)C(=O)N[C@@H](CC(=O)O)C(=O)N[C@@H](CC(C)C)C(=O)N[C@H](C(=O)N[C@H](Cc1ccccc1)C(=O)N[C@@H](Cc1c[nH]cn1)C(=O)N[C@@H](CC(C)C)C(=O)N[C@@H](CC(C)C)C(=O)N[C@@H](CCCNC(=N)N)C(=O)N[C@H](C(=O)N[C@@H](CC(C)C)C(=O)N[C@@H](CC(C)C)C(=O)N[C@@H](CCC(=O)O)C(=O)N[C@@H](CC(C)C)C(=O)N[C@@H](C)C(=O)N[C@@H](CCCNC(=N)N)C(=O)N[C@H](C(=O)N[C@@H](CCC(N)=O)C(=O)N[C@@H](CO)C(=O)N[C@@H](CCC(N)=O)C(=O)N[C@@H](CCCNC(=N)N)C(=O)N[C@@H](CCC(=O)O)C(=O)N[C@H]1CCC(=O)NCCCC[C@@H](C(=O)N[C@@H](CC(N)=O)C(=O)N[C@@H](CCCNC(=N)N)C(=O)N[C@H](C(=O)N[C@H](C(=O)N[C@@H](Cc2ccccc2)C(=O)N[C@@H](CC(=O)O)C(=O)N[C@@H](CO)C(=O)N[C@H](C(N)=O)C(C)C)[C@@H](C)CC)[C@@H](C)CC)NC(=O)[C@H](CCC(=O)O)NC(=O)[C@H](C)NC1=O)[C@@H](C)O)[C@@H](C)O)[C@@H](C)O
B2: (cyclo 29-32)[D-Phe11, Glu29, Lys32]-Ucn(11-40) (peptide)
peptide: [dF]HLLRTLLELARTQSQREEAEKNRIIFDSV-NH2
modifications: lactam 19-22; N-terminus assumed
SMILES: CC[C@H](C)[C@H](NC(=O)[C@H](CCCNC(=N)N)NC(=O)[C@H](CC(N)=O)NC(=O)[C@@H]1CCCCNC(=O)CC[C@H](NC(=O)[C@H](CCC(=O)O)NC(=O)[C@H](CCCNC(=N)N)NC(=O)[C@H](CCC(N)=O)NC(=O)[C@H](CO)NC(=O)[C@H](CCC(N)=O)NC(=O)[C@@H](NC(=O)[C@H](CCCNC(=N)N)NC(=O)[C@H](C)NC(=O)[C@H](CC(C)C)NC(=O)[C@H](CCC(=O)O)NC(=O)[C@H](CC(C)C)NC(=O)[C@H](CC(C)C)NC(=O)[C@@H](NC(=O)[C@H](CCCNC(=N)N)NC(=O)[C@H](CC(C)C)NC(=O)[C@H](CC(C)C)NC(=O)[C@H](Cc2c[nH]cn2)NC(=O)[C@H](N)Cc2ccccc2)[C@@H](C)O)[C@@H](C)O)C(=O)N[C@@H](C)C(=O)N[C@@H](CCC(=O)O)C(=O)N1)C(=O)N[C@H](C(=O)N[C@@H](Cc1ccccc1)C(=O)N[C@@H](CC(=O)O)C(=O)N[C@@H](CO)C(=O)N[C@H](C(N)=O)C(C)C)[C@@H](C)CC
B3: (cyclo 29-32) [Ac-Pro3,D-Phe11, Glu29, D-Glu31, Lys32]-hUcn(3-40) (peptide)
peptide: Ac-PSLSIDLT[dF]HLLRTLLELARTQSQREEA[dE]KNRIIFDSV-NH2
modifications: lactam 27-30
SMILES: CC[C@H](C)[C@H](NC(=O)[C@H](CO)NC(=O)[C@H](CC(C)C)NC(=O)[C@H](CO)NC(=O)[C@@H]1CCCN1C(C)=O)C(=O)N[C@@H](CC(=O)O)C(=O)N[C@@H](CC(C)C)C(=O)N[C@H](C(=O)N[C@H](Cc1ccccc1)C(=O)N[C@@H](Cc1c[nH]cn1)C(=O)N[C@@H](CC(C)C)C(=O)N[C@@H](CC(C)C)C(=O)N[C@@H](CCCNC(=N)N)C(=O)N[C@H](C(=O)N[C@@H](CC(C)C)C(=O)N[C@@H](CC(C)C)C(=O)N[C@@H](CCC(=O)O)C(=O)N[C@@H](CC(C)C)C(=O)N[C@@H](C)C(=O)N[C@@H](CCCNC(=N)N)C(=O)N[C@H](C(=O)N[C@@H](CCC(N)=O)C(=O)N[C@@H](CO)C(=O)N[C@@H](CCC(N)=O)C(=O)N[C@@H](CCCNC(=N)N)C(=O)N[C@@H](CCC(=O)O)C(=O)N[C@H]1CCC(=O)NCCCC[C@@H](C(=O)N[C@@H](CC(N)=O)C(=O)N[C@@H](CCCNC(=N)N)C(=O)N[C@H](C(=O)N[C@H](C(=O)N[C@@H](Cc2ccccc2)C(=O)N[C@@H](CC(=O)O)C(=O)N[C@@H](CO)C(=O)N[C@H](C(N)=O)C(C)C)[C@@H](C)CC)[C@@H](C)CC)NC(=O)[C@@H](CCC(=O)O)NC(=O)[C@H](C)NC1=O)[C@@H](C)O)[C@@H](C)O)[C@@H](C)O
B4: (cyclo 29-32) [D-Tyr11, Glu29, Lys32]-Ucn(11-40) (peptide)
peptide: [dY]HLLRTLLELARTQSQREEAEKNRIIFDSV-NH2
modifications: lactam 19-22; N-terminus assumed
SMILES: CC[C@H](C)[C@H](NC(=O)[C@H](CCCNC(=N)N)NC(=O)[C@H](CC(N)=O)NC(=O)[C@@H]1CCCCNC(=O)CC[C@H](NC(=O)[C@H](CCC(=O)O)NC(=O)[C@H](CCCNC(=N)N)NC(=O)[C@H](CCC(N)=O)NC(=O)[C@H](CO)NC(=O)[C@H](CCC(N)=O)NC(=O)[C@@H](NC(=O)[C@H](CCCNC(=N)N)NC(=O)[C@H](C)NC(=O)[C@H](CC(C)C)NC(=O)[C@H](CCC(=O)O)NC(=O)[C@H](CC(C)C)NC(=O)[C@H](CC(C)C)NC(=O)[C@@H](NC(=O)[C@H](CCCNC(=N)N)NC(=O)[C@H](CC(C)C)NC(=O)[C@H](CC(C)C)NC(=O)[C@H](Cc2c[nH]cn2)NC(=O)[C@H](N)Cc2ccc(O)cc2)[C@@H](C)O)[C@@H](C)O)C(=O)N[C@@H](C)C(=O)N[C@@H](CCC(=O)O)C(=O)N1)C(=O)N[C@H](C(=O)N[C@@H](Cc1ccccc1)C(=O)N[C@@H](CC(=O)O)C(=O)N[C@@H](CO)C(=O)N[C@H](C(N)=O)C(C)C)[C@@H](C)CC
B5: (cyclo 29-32) [D-Phe11, Glu29, D-Glu31, Lys32]-Ucn(11-40) (peptide)
peptide: [dF]HLLRTLLELARTQSQREEA[dE]KNRIIFDSV-NH2
modifications: lactam 19-22; N-terminus assumed
SMILES: CC[C@H](C)[C@H](NC(=O)[C@H](CCCNC(=N)N)NC(=O)[C@H](CC(N)=O)NC(=O)[C@@H]1CCCCNC(=O)CC[C@H](NC(=O)[C@H](CCC(=O)O)NC(=O)[C@H](CCCNC(=N)N)NC(=O)[C@H](CCC(N)=O)NC(=O)[C@H](CO)NC(=O)[C@H](CCC(N)=O)NC(=O)[C@@H](NC(=O)[C@H](CCCNC(=N)N)NC(=O)[C@H](C)NC(=O)[C@H](CC(C)C)NC(=O)[C@H](CCC(=O)O)NC(=O)[C@H](CC(C)C)NC(=O)[C@H](CC(C)C)NC(=O)[C@@H](NC(=O)[C@H](CCCNC(=N)N)NC(=O)[C@H](CC(C)C)NC(=O)[C@H](CC(C)C)NC(=O)[C@H](Cc2c[nH]cn2)NC(=O)[C@H](N)Cc2ccccc2)[C@@H](C)O)[C@@H](C)O)C(=O)N[C@@H](C)C(=O)N[C@H](CCC(=O)O)C(=O)N1)C(=O)N[C@H](C(=O)N[C@@H](Cc1ccccc1)C(=O)N[C@@H](CC(=O)O)C(=O)N[C@@H](CO)C(=O)N[C@H](C(N)=O)C(C)C)[C@@H](C)CC
B6: (cyclo 29-32) [Ac-Pro3,D-Pro4,D-Phe11, Glu29, Lys32]-hUcn(3-40) (peptide)
peptide: Ac-P[dP]LSIDLT[dF]HLLRTLLELARTQSQREEAEKNRIIFDSV-NH2
modifications: lactam 27-30
SMILES: CC[C@H](C)[C@H](NC(=O)[C@H](CO)NC(=O)[C@H](CC(C)C)NC(=O)[C@H]1CCCN1C(=O)[C@@H]1CCCN1C(C)=O)C(=O)N[C@@H](CC(=O)O)C(=O)N[C@@H](CC(C)C)C(=O)N[C@H](C(=O)N[C@H](Cc1ccccc1)C(=O)N[C@@H](Cc1c[nH]cn1)C(=O)N[C@@H](CC(C)C)C(=O)N[C@@H](CC(C)C)C(=O)N[C@@H](CCCNC(=N)N)C(=O)N[C@H](C(=O)N[C@@H](CC(C)C)C(=O)N[C@@H](CC(C)C)C(=O)N[C@@H](CCC(=O)O)C(=O)N[C@@H](CC(C)C)C(=O)N[C@@H](C)C(=O)N[C@@H](CCCNC(=N)N)C(=O)N[C@H](C(=O)N[C@@H](CCC(N)=O)C(=O)N[C@@H](CO)C(=O)N[C@@H](CCC(N)=O)C(=O)N[C@@H](CCCNC(=N)N)C(=O)N[C@@H](CCC(=O)O)C(=O)N[C@H]1CCC(=O)NCCCC[C@@H](C(=O)N[C@@H](CC(N)=O)C(=O)N[C@@H](CCCNC(=N)N)C(=O)N[C@H](C(=O)N[C@H](C(=O)N[C@@H](Cc2ccccc2)C(=O)N[C@@H](CC(=O)O)C(=O)N[C@@H](CO)C(=O)N[C@H](C(N)=O)C(C)C)[C@@H](C)CC)[C@@H](C)CC)NC(=O)[C@H](CCC(=O)O)NC(=O)[C@H](C)NC1=O)[C@@H](C)O)[C@@H](C)O)[C@@H](C)O

biological target: CRF receptors on anterior pituitary cells in culture; experiment: cell-based or functional assay; settings: not given

ACTH secretion, anterior pituitary cell cultures, potency relative to r/hCRF	antagonism of ACTH secretion under a challenge dose of ovine CRF, potency relative to the Standard Antagonist (times Standard Antagonist)	Molecule
5.69 times r/hCRF	–	B1
1.23 times r/hCRF	–	[dY]DNPSLSIDLTFHLLRTLLELARTQSQRERAEQNRIIFDSV-NH2 [[D-Tyr0]hUcn(1-40)]
–	10.3	B2
6.14 times r/hCRF	–	B3
–	4.01	B4
–	4.72	B5
9.9 times r/hCRF	–	B6

system: mammalian mean arterial blood pressure; experiment: in vivo test measuring elevation of mean arterial blood pressure as a result of iv injection; settings: result in words; indicative of a Ucn antagonist
Source text: The peptide, Ucn(11-40), having the amino acid sequence (see SEQ ID NO: 8): […] is synthesized in the manner described in Example I. To evaluate the biological activity of a candidate peptide as a Ucn antagonist (which will be indicative of its effective binding to CRF receptors), the previously mentioned assay from Endocrinology, 91, supra, is run in the presence of a challenge dose of ovine CRF. […] An in vivo test measuring elevation of mean arterial blood pressure as a result of iv injection is also simply and straightforwardly performed.

Molecule	vasoconstrictive activity causing elevation of mean arterial blood pressure
H-[dF]HLLRTLLELARTQSQREEA[dR][Orn]NRIIFDSV-NH2	significant mammalian vasoconstrictive activity
H-Phe-His-Leu-Leu-Arg-Thr-Leu-Leu-Glu-Leu-Ala-Arg-Thr-Gln-Ser-Gln-Arg-Glu-Arg-Ala-Glu-Gln-Asn-Arg-Ile-Ile-Phe-Asp-Ser-Val-NH2 (H-FHLLRTLLELARTQSQRERAEQNRIIFDSV-NH2) [Ucn(11-40)]	significant mammalian vasoconstrictive activity
H-[dF]HLLRTLLELARTQSQREKAEENRIIFDSV-NH2	significant mammalian vasoconstrictive activity
H-[dY]HLLRTLLELARTQSQREEA[dE]KNRIIFDSV-NH2	significant mammalian vasoconstrictive activity
H-[dY]HLLRTLLELARTQSQRERAEQNRIIFDSV-NH2 [[D-Tyr^11]-Ucn(11-40)]	significant mammalian vasoconstrictive activity
H-[dF]HLLRTLLELARTQSQREKA[dE]ENRIIFDSV-NH2	significant mammalian vasoconstrictive activity
